Experimental data as given in patent US20210347913A1 (published 2021).

T1: PTK7 on PTK7 positive cell line SaOS-2 (osteosarcoma) (UniProt Q13308 31-1070)
T1 chain: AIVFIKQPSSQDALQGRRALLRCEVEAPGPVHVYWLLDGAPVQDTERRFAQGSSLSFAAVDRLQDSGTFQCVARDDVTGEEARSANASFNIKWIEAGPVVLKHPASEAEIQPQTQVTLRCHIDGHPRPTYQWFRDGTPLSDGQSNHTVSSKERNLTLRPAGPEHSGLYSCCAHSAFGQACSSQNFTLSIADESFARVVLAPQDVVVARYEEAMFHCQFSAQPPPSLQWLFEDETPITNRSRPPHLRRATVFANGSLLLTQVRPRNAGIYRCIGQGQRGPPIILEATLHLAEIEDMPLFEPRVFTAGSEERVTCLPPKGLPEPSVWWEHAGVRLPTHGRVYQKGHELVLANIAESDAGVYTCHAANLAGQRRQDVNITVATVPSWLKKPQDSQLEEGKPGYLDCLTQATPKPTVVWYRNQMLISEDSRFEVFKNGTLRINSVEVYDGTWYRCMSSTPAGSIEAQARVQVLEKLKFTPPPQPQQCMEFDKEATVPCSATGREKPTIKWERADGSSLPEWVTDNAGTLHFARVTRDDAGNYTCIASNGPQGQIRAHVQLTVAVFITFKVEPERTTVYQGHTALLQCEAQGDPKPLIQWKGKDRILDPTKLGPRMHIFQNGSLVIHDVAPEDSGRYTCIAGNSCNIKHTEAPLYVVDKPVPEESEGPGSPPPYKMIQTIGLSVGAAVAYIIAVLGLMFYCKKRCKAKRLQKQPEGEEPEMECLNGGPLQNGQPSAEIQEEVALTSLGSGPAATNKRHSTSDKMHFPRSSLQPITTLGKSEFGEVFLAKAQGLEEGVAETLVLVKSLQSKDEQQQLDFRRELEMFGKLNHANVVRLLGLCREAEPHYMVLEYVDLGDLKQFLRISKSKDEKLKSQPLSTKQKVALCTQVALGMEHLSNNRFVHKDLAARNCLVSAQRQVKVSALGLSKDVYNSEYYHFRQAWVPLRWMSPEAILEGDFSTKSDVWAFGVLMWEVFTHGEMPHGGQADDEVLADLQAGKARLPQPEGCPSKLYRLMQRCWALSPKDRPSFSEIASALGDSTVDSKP


Tests used:
[1] = molecular target: T1, PTK7 on PTK7 positive cell line SaOS-2 …; test: FACS binding SaOS-2
[2] = molecular target: T1, PTK7 on PTK7 positive cell line SaOS-2 …; test: FACS binding SaOS-2; +MMP14
[3] = molecular target: T1, PTK7 on PTK7 positive cell line SaOS-2 …; test: FACS binding SaOS-2; -MMP14

Binder | EC50 [1] | EC50 [2] | EC50 [3]
181 M13 (antibody) QGCTYPPRFHMHWLCGSSGGSGGSGGSGGGPLGLAGGSSGQVQLVESGGGVVQPGRSLRLSCAASGFTFSSYGMHWVRQAPGKGLEWVAVIWDDGSNKYYVDSVKGRFTISRDNSKNTLYLQMNSLRAEDTAVYYCARDDYYGSGSFNSYYGTDVWGQGTTVTVSSGGGGSGGGGSGGGGSEIVLTQSPATLSLSPGERATLSCRASQSVSIYLAWYQQKPGQAPRLLIYDASNRATGIPARFSGSGSGTDFTLTISSLEPEDFAVYYCQQRSNWPPFTFGPGTKVDIKSAAAFVPVFLPAKPTTTPAPRPPTPAPTIASQPLSLRPEACRPAAGGAVHTRGLDFACDIYIWAPLAGTCGVLLLSLVITLYCNHRNRSKRSRLLHSDYMNMTPRRPGPTRKHYQPYAPPRDFAAYRSRVKFSRSADAPAYQQGQNQLYNELNLGRREEYDVLDKRRGRDPEMGGKPRRKNPQEGLYNELQKDKMAEAYSEIGMKGERRRGKGHDGLYQGLSTATKDTYDALHMQALPPR | 40.9 nM | 0.38 nM | 58.6 nM
181 M12 (antibody) QGCTMPVHTYSQWLCGSSGGSGGSGGSGGGPLGLAGGSSGQVQLVESGGGVVQPGRSLRLSCAASGFTFSSYGMHWVRQAPGKGLEWVAVIWDDGSNKYYVDSVKGRFTISRDNSKNTLYLQMNSLRAEDTAVYYCARDDYYGSGSFNSYYGTDVWGQGTTVTVSSGGGGSGGGGSGGGGSEIVLTQSPATLSLSPGERATLSCRASQSVSIYLAWYQQKPGQAPRLLIYDASNRATGIPARFSGSGSGTDFTLTISSLEPEDFAVYYCQQRSNWPPFTFGPGTKVDIKSAAAFVPVFLPAKPTTTPAPRPPTPAPTIASQPLSLRPEACRPAAGGAVHTRGLDFACDIYIWAPLAGTCGVLLLSLVITLYCNHRNRSKRSRLLHSDYMNMTPRRPGPTRKHYQPYAPPRDFAAYRSRVKFSRSADAPAYQQGQNQLYNELNLGRREEYDVLDKRRGRDPEMGGKPRRKNPQEGLYNELQKDKMAEAYSEIGMKGERRRGKGHDGLYQGLSTATKDTYDALHMQALPPR | 93.8 nM | – | –
181 M7 (antibody) QGCTMPYHIHSIGLCGSSGGSGGSGGSGGGPLGLAGGSSGQVQLVESGGGVVQPGRSLRLSCAASGFTFSSYGMHWVRQAPGKGLEWVAVIWDDGSNKYYVDSVKGRFTISRDNSKNTLYLQMNSLRAEDTAVYYCARDDYYGSGSFNSYYGTDVWGQGTTVTVSSGGGGSGGGGSGGGGSEIVLTQSPATLSLSPGERATLSCRASQSVSIYLAWYQQKPGQAPRLLIYDASNRATGIPARFSGSGSGTDFTLTISSLEPEDFAVYYCQQRSNWPPFTFGPGTKVDIKSAAAFVPVFLPAKPTTTPAPRPPTPAPTIASQPLSLRPEACRPAAGGAVHTRGLDFACDIYIWAPLAGTCGVLLLSLVITLYCNHRNRSKRSRLLHSDYMNMTPRRPGPTRKHYQPYAPPRDFAAYRSRVKFSRSADAPAYQQGQNQLYNELNLGRREEYDVLDKRRGRDPEMGGKPRRKNPQEGLYNELQKDKMAEAYSEIGMKGERRRGKGHDGLYQGLSTATKDTYDALHMQALPPR | 118 nM | – | –
181 M14 (antibody) QGCTHVAQWAIKAFCGSSGGSGGSGGSGGGPLGLAGGSSGQVQLVESGGGVVQPGRSLRLSCAASGFTFSSYGMHWVRQAPGKGLEWVAVIWDDGSNKYYVDSVKGRFTISRDNSKNTLYLQMNSLRAEDTAVYYCARDDYYGSGSFNSYYGTDVWGQGTTVTVSSGGGGSGGGGSGGGGSEIVLTQSPATLSLSPGERATLSCRASQSVSIYLAWYQQKPGQAPRLLIYDASNRATGIPARFSGSGSGTDFTLTISSLEPEDFAVYYCQQRSNWPPFTFGPGTKVDIKSAAAFVPVFLPAKPTTTPAPRPPTPAPTIASQPLSLRPEACRPAAGGAVHTRGLDFACDIYIWAPLAGTCGVLLLSLVITLYCNHRNRSKRSRLLHSDYMNMTPRRPGPTRKHYQPYAPPRDFAAYRSRVKFSRSADAPAYQQGQNQLYNELNLGRREEYDVLDKRRGRDPEMGGKPRRKNPQEGLYNELQKDKMAEAYSEIGMKGERRRGKGHDGLYQGLSTATKDTYDALHMQALPPR | 68.8 nM | – | –
181 M6 (antibody) QGVCTYPPAHRTRFCGSSGGSGGSGGSGGGPLGLAGGSSGQVQLVESGGGVVQPGRSLRLSCAASGFTFSSYGMHWVRQAPGKGLEWVAVIWDDGSNKYYVDSVKGRFTISRDNSKNTLYLQMNSLRAEDTAVYYCARDDYYGSGSFNSYYGTDVWGQGTTVTVSSGGGGSGGGGSGGGGSEIVLTQSPATLSLSPGERATLSCRASQSVSIYLAWYQQKPGQAPRLLIYDASNRATGIPARFSGSGSGTDFTLTISSLEPEDFAVYYCQQRSNWPPFTFGPGTKVDIKSAAAFVPVFLPAKPTTTPAPRPPTPAPTIASQPLSLRPEACRPAAGGAVHTRGLDFACDIYIWAPLAGTCGVLLLSLVITLYCNHRNRSKRSRLLHSDYMNMTPRRPGPTRKHYQPYAPPRDFAAYRSRVKFSRSADAPAYQQGQNQLYNELNLGRREEYDVLDKRRGRDPEMGGKPRRKNPQEGLYNELQKDKMAEAYSEIGMKGERRRGKGHDGLYQGLSTATKDTYDALHMQALPPR | 30.5 nM | – | –
181 M5 (antibody) QGCTYPSWVAYIRFCGSSGGSGGSGGSGGGPLGLAGGSSGQVQLVESGGGVVQPGRSLRLSCAASGFTFSSYGMHWVRQAPGKGLEWVAVIWDDGSNKYYVDSVKGRFTISRDNSKNTLYLQMNSLRAEDTAVYYCARDDYYGSGSFNSYYGTDVWGQGTTVTVSSGGGGSGGGGSGGGGSEIVLTQSPATLSLSPGERATLSCRASQSVSIYLAWYQQKPGQAPRLLIYDASNRATGIPARFSGSGSGTDFTLTISSLEPEDFAVYYCQQRSNWPPFTFGPGTKVDIKSAAAFVPVFLPAKPTTTPAPRPPTPAPTIASQPLSLRPEACRPAAGGAVHTRGLDFACDIYIWAPLAGTCGVLLLSLVITLYCNHRNRSKRSRLLHSDYMNMTPRRPGPTRKHYQPYAPPRDFAAYRSRVKFSRSADAPAYQQGQNQLYNELNLGRREEYDVLDKRRGRDPEMGGKPRRKNPQEGLYNELQKDKMAEAYSEIGMKGERRRGKGHDGLYQGLSTATKDTYDALHMQALPPR | 29.9 nM | – | –
181 M9 (antibody) QGCHIGKRPVPCLWIGSSGGSGGSGGSGGGPLGLAGGSSGQVQLVESGGGVVQPGRSLRLSCAASGFTFSSYGMHWVRQAPGKGLEWVAVIWDDGSNKYYVDSVKGRFTISRDNSKNTLYLQMNSLRAEDTAVYYCARDDYYGSGSFNSYYGTDVWGQGTTVTVSSGGGGSGGGGSGGGGSEIVLTQSPATLSLSPGERATLSCRASQSVSIYLAWYQQKPGQAPRLLIYDASNRATGIPARFSGSGSGTDFTLTISSLEPEDFAVYYCQQRSNWPPFTFGPGTKVDISAAAFVPVFLPAKPTTTPAPRPPTPAPTIASQPLSLRPEACRPAAGGAVHTRGLDFACDIYIWAPLAGTCGVLLLSLVITLYCNHRNRSKRSRLLHSDYMNMTPRRPGPTRKHYQPYAPPRDFAAYRSRVKFSRSADAPAYQQGQNQLYNELNLGRREEYDVLDKRRGRDPEMGGKPRRKNPQEGLYNELQKDKMAEAYSEIGMKGERRRGKGHDGLYQGLSTATKDTYDALHMQALPPR | 141 nM | – | –
181 M10 (antibody) QGCYIGLRMVPCFHMGSSGGSGGSGGSGGGPLGLAGGSSGQVQLVESGGGVVQPGRSLRLSCAASGFTFSSYGMHWVRQAPGKGLEWVAVIWDDGSNKYYVDSVKGRFTISRDNSKNTLYLQMNSLRAEDTAVYYCARDDYYGSGSFNSYYGTDVWGQGTTVTVSSGGGGSGGGGSGGGGSEIVLTQSPATLSLSPGERATLSCRASQSVSIYLAWYQQKPGQAPRLLIYDASNRATGIPARFSGSGSGTDFTLTISSLEPEDFAVYYCQQRSNWPPFTFGPGTKVDIKSAAAFVPVFLPAKPTTTPAPRPPTPAPTIASQPLSLRPEACRPAAGGAVHTRGLDFACDIYIWAPLAGTCGVLLLSLVITLYCNHRNRSKRSRLLHSDYMNMTPRRPGPTRKHYQPYAPPRDFAAYRSRVKFSRSADAPAYQQGQNQLYNELNLGRREEYDVLDKRRGRDPEMGGKPRRKNPQEGLYNELQKDKMAEAYSEIGMKGERRRGKGHDGLYQGLSTATKDTYDALHMQALPPR | 1350 nM | 0.49 nM | 434 nM
181 M11 (antibody) QGCTMPSHAVASFLCGSSGGSGGSGGSGGGPLGLAGGSSGQVQLVESGGGVVQPGRSLRLSCAASGFTFSSYGMHWVRQAPGKGLEWVAVIWDDGSNKYYVDSVKGRFTISRDNSKNTLYLQMNSLRAEDTAVYYCARDDYYGSGSFNSYYGTDVWGQGTTVTVSSGGGGSGGGGSGGGGSEIVLTQSPATLSLSPGERATLSCRASQSVSIYLAWYQQKPGQAPRLLIYDASNRATGIPARFSGSGSGTDFTLTISSLEPEDFAVYYCQQRSNWPPFTFGPGTKVDIKSAAAFVPVFLPAKPTTTPAPRPPTPAPTIASQPLSLRPEACRPAAGGAVHTRGLDFACDIYIWAPLAGTCGVLLLSLVITLYCNHRNRSKRSRLLHSDYMNMTPRRPGPTRKHYQPYAPPRDFAAYRSRVKFSRSADAPAYQQGQNQLYNELNLGRREEYDVLDKRRGRDPEMGGKPRRKNPQEGLYNELQKDKMAEAYSEIGMKGERRRGKGHDGLYQGLSTATKDTYDALHMQALPPR | 222 nM | – | –
